The values below come from patent publication US8580549B2, “Esterases for separating plastics” (Henkel KGaA, priority 2005, dated 2013).

Some results are limits rather than exact numbers.

As usually defined, the kcat is the maximal rate divided by the concentration of active sites.

Type in all cases: biochemical
Data set [1] can be described thus: Substrate specificity to para-nitrophenyl esters: p-NP-laurate. The note with it: p-NP-laurate 0.8 mM, phosphate buffer pH 8, room temperature, 410 nm. The method, then:
(§1) For the determination of chain length specificities of the investigated esterases, p-nitrophenyl esters with different chain lengths were used as the substrate for the spectroscopic measurements of activity. To the p-nitrophenyl esters dissolved in 10 mL isopropanol were added 90 mL phosphate buffer (pH 8, disodium hydrogen phosphate and potassium dihydrogen phosphate). The final concentration of the substrate was 0.8 mM. Each 990 μL buffer-substrate mixture was mixed with 10 μL of the enzyme sample and incubated at room temperature for one minute. The increase in absorption at 410 nm was then measured (UV MC^2, SAFAS, Monaco). The enzyme activity was calculated using a molar extinction coefficient of 17100 [M^−1cm^−1], wherein 1 unit was defined as the quantity of enzyme that released 1 μmol p-nitrophenol per minute.
(§2) The data in Table 3 represent mean values from three independent measurements with a relative standard deviation of less than 10%.

Data set [2] can be described thus: Substrate specificity to para-nitrophenyl esters: p-NP-stearate. The note with it: p-NP-stearate 0.8 mM, phosphate buffer pH 8, room temperature, 410 nm. As for the experimental part:
as §1, §2

Data set [3] in a line: Titrimetric Michaelis-Menten kinetics, hydrolysis of diethyl phthalate. The note with it: substrate DEP; for kcat: assumes added enzyme = active enzyme; for vMax: titrimetric, 30° C., pH 9. As for the experimental part:
(§3) The enzyme activities of the esterases were measured with the titration apparatus 702 SAT (METROHM Ltd., Switzerland) for various substrates of the phthalate family (FIG. 4). The phthalates were dissolved in diethyl ether with 0.5 g Triton X100. The diethyl ether was then removed under a stream of nitrogen. 50 ml buffer (2 mM Tris/HCl, pH 9) was added, homogenized by ultrasound and used in different final concentrations (0.3 mM to 100 mM) in a total reaction volume of 2 mL (including enzyme). The reaction buffer was pre-incubated at 30° C. for 10 minutes. After addition of the enzyme, the NaOH consumption (concentration determination by triple titration with oxalic acid) at a reaction temperature of 30° C. was plotted. One unit is defined as the enzyme activity that releases 1 μmol acid per minute.
(§4) Titrimetric measurements were carried out to determine the kinetic constants vmax, kM, kcat and kcat/kM of the three para-nitrobenzyl esterases pNB-Est17, pNB-Est19 and pNB-Est13 towards different phthalates and terephthalates. The enzyme activities were determined for different substrate concentrations and evaluated according to MICHAELIS-MENTEN (see FIGS. 5 to 7). The measured kM- and vmax values and the added enzyme concentrations were used to calculate the kinetic constants (kcat and k2) and the catalytic efficiency (kcat/kM)—under the assumption that the added enzyme concentration was the same as the concentration of the active enzyme.
(§5) The data in FIGS. 5 to 7 and Tables 5 to 7 represent mean values from three independent titrimetric measurements with a relative standard deviation of less than 5%. The calculation of kcat and kcat/kM was based on the assumption that the added enzyme concentration was the same as the concentration of the active enzyme.

A short description of data set [4]: Substrate specificity to para-nitrophenyl esters: p-NP-caprylate. The note with it: p-NP-caprylate 0.8 mM, phosphate buffer pH 8, room temperature, 410 nm. The method, then:
as §1, §2

A short description of data set [5]: Titrimetric Michaelis-Menten kinetics, hydrolysis of dimethyl isophthalate. The note with it: substrate DMIP; for kcat: assumes added enzyme = active enzyme; for vMax: titrimetric, 30° C., pH 9. The method, then:
as §3, §4, §5

Data set [6] in a line: Titrimetric Michaelis-Menten kinetics, hydrolysis of dimethyl phthalate. The note with it: substrate DMP; for kcat: assumes added enzyme = active enzyme; for vMax: titrimetric, 30° C., pH 9. The method, then:
as §3, §4, §5

The nature of data set [7]: Substrate specificity to para-nitrophenyl esters: p-NP-butyrate. The note with it: p-NP-butyrate 0.8 mM, phosphate buffer pH 8, room temperature, 410 nm. As for the experimental part:
as §1, §2

Data set [8] is described as follows: Titrimetric Michaelis-Menten kinetics, hydrolysis of dimethyl terephthalate. The note with it: substrate DMT; for kcat: assumes added enzyme = active enzyme; for vMax: titrimetric, 30° C., pH 9. As for the experimental part:
as §3, §4, §5

A short description of data set [9]: Substrate specificity to para-nitrophenyl esters: p-NP-caprate. The note with it: p-NP-caprate 0.8 mM, phosphate buffer pH 8, room temperature, 410 nm. The method, then: as §1, §2
Data set [10] is described as follows: Titrimetric Michaelis-Menten kinetics, hydrolysis of diethyl terephthalate. The note with it: substrate DET; for kcat: assumes added enzyme = active enzyme; for vMax: titrimetric, 30° C., pH 9. As for the experimental part: as §3, §4, §5
Data set [11] is described as follows: Substrate specificity to para-nitrophenyl esters: p-NP-palmitate. The note with it: p-NP-palmitate 0.8 mM, phosphate buffer pH 8, room temperature, 410 nm. As for the experimental part: as §1, §2
Data set [12] can be described thus: Substrate specificity to para-nitrophenyl esters: p-NP-caproate. The note with it: p-NP-caproate 0.8 mM, phosphate buffer pH 8, room temperature, 410 nm. The method, then:
as §1, §2

Data set [13] can be described thus: Titrimetric Michaelis-Menten kinetics, hydrolysis of dibutyl phthalate. The note with it: substrate DBP; for kcat: assumes added enzyme = active enzyme; for vMax: titrimetric, 30° C., pH 9. As for the experimental part: as §3, §4, §5
Data set [14] in a line: Esterase activity by hydrolysis of bis-(p-methylbenzoic acid) ester of ethylene glycol (titration). The note with it: titrimetric, 30° C., tris/HCl pH 9.0; for Specific Activity / vMax: mean of three measurements. The method, then:
2.4.2 Determination of the Enzymatic Activity
The cleavage of the bis-(p-methylbenzoic acid) ester of ethylene glycol catalyzed by the inventive enzymes affords 2 equivalents of 4-methylbenzoic acid and ethylene glycol (see FIG. 2).
For the preparation of the enzyme assay, the desired amount of substrate was mixed with 0.5 g Triton X100 and dissolved with heating in 50 mL ethanol (99%, denatured). Once all the substrate was dissolved, the solution was added to 50 mL buffer (2 mM tris/HCl buffer; pH 9.0) with intense stirring by Ultra-Turrax. This solution was then stirred at room temperature for at least 12 hours in order to remove a large part of the added ethanol. The thus-prepared substrate solution was immediately titrated. The reaction buffer was pre-incubated at 30° C. for 10 minutes.
Different final concentrations (0.67 mM to 50 mM) were used in a total reaction volume of 2 mL including enzyme. After addition of the enzyme, the NaOH consumption (concentration determination by triple titration with oxalic acid) with the titration apparatus 702 SAT (METROHM Ltd., Switzerland)) at a reaction temperature of 30° C. was plotted. One unit is defined as the enzyme activity that releases 1 μmol acid per minute.
In this and the subsequent examples, the following abbreviations are used for the tested esterases: enzyme according to Seq ID No. 12 (pNB-Est13), enzyme according to Seq ID No. 2 (pNB-Est19), enzyme according to Seq ID No. 1 (pNB-Est17). The data obtained for the cited esterases in Table 2 were determined by titrimetric measurements and represent mean values from: three independent measurements with a relative standard deviation of less than 5%.

The nature of data set [15]: Substrate specificity to para-nitrophenyl esters: p-NP-myristate. The note with it: p-NP-myristate 0.8 mM, phosphate buffer pH 8, room temperature, 410 nm. As for the experimental part: as §1, §2

B1: pNB-Est17: para-nitrobenzyl esterase, enzyme according to Seq ID No. 1, from Bacillus subtilis (17A1), 489 amino acids (protein, listed as Bacillus subtilis)
chain: MTHQIVTTQYGKVKGTTENGVHKWKGIPYAKPPVGQWRFKAPEPPEVWEDVLDATAYGPICPQPSDLLSLSYTELPRQSEDCLYVNVFAPDTPSQNLPVMVWIHGGAFYLGAGSEPLYDGSKLAAQGEVIVVTLNYRLGPFGFLHLSSFDEAYSDNLGLLDQAAALKWVRENISAFGGDPDNVTVFGESAGGMSIAALLAMPAAKGLFQKAIMESGASRTMTKEQAASTSAAFLQVLGINEGQLDKLHTVSAEDLLKAADQLRIAEKENIFQLFFQPALDPKTLPAEPEKAISEGAASGIPLLIGTTRDEGYLFFTPDSDVHSQETLDAALEYLLGKPLAEKAADLYPRSLESQIHMMTDLLFWRPAVAYASAQSHYAPVWMYRFDWHPKKPPYNKAFHALELPFVFGNLDGLERMAKAEITDEVKQLSHTIQSAWITFAKTGNPSTEAVNWPTYHEETRETLILDSEITIENDPESEKRQKLFPSKGE
With B1, the “Specific Activity” value in data set [1] was 3.4 U/mg; in data set [2] it was <1 U/mg; in data set [4] it was 73.2 U/mg; in [7], 196.3 U/mg; in data set [9] it was 10.2 U/mg; in data set [11], <1 U/mg. The “Specific Activity” value is 102.7 U/mg in data set [12], 1.60 µmol/min/mg in [14] and <1 U/mg in data set [15]. The kcat came out at 31065 s⁻¹ in data set [3]; 38880 s⁻¹ in data set [5]; 45672 s⁻¹ in [6]; 60028 s⁻¹ in [8]; 90998 s⁻¹ in data set [10]; 155676 s⁻¹ in data set [13]. For the same molecule, the kcat in data set [14] was 5177 s⁻¹. Besides, the vMax in [3] amounted to 9.57 U/mg; in data set [5], 11.99 U/mg; in data set [6] it was 14.09 U/mg; in data set [8], 18.52 U/mg; in data set [10], 28.06 U/mg; in data set [13], 48.03 U/mg. For the same molecule, in [14], the vMax came to 0.642 µmol/min.

B2: pNB-Est19: para-nitrobenzyl esterase, enzyme according to Seq ID No. 2, from Bacillus licheniformis (19C5), 489 amino acids (protein, listed as Bacillus licheniformis)
chain: B1 chain
Take B2: the “Specific Activity” value in data set [1] was 4.0 U/mg; in data set [2] it was <1 U/mg; in data set [4], 83.6 U/mg; in data set [7], 234.8 U/mg; in data set [9], 3.9 U/mg; in data set [11], <1 U/mg. The “Specific Activity” value in data set [12] is 249.6 U/mg; in data set [14], 1.19 µmol/min/mg; in data set [15], 1.3 U/mg. Besides, the kcat in data set [3] came out at 23265 s⁻¹; in [5], 27637 s⁻¹; in data set [6], 50970 s⁻¹; in data set [8] it was 50718 s⁻¹; in data set [10], 99411 s⁻¹; in [14], 3838 s⁻¹. In addition, the vMax in [3] is reported as 7.20 U/mg; in data set [5], 8.55 U/mg; in data set [6], 15.76 U/mg; in data set [8] it was 15.69 U/mg; in data set [10], 30.79 U/mg; in [13], 40.69 U/mg. Further, in data set [14], the vMax stood at 0.385 µmol/min.

B3: pNB-Est13: para-nitrobenzyl esterase, enzyme according to Seq ID No. 12, Bacillus licheniformis DSM13 (gi 52346943) (protein, listed as Bacillus licheniformis)
chain: MYDTTVETRFGKLKGRAENGVRIFKGVPYAKPPVGDLRFREPQRMEAWEGELDAFQFGPVCPQPDGVLPESAGVQKSEDCLYLNVYAPEEADGDLPVMVWIHGGAFYRGAGSEPLYDGTQLAKQGKVIVVTINYRLGPFGFLHLSSIDDSYSSNLGLLDQIAALEWVKDNIAFFGGDRHHITVFGESAGSMSIASLLAMPKAKGLFQQAIMESGASATMSDKLAKAAAERFLRILDIDHHHLERLHDVSDQELLEAADQLRTLMGENIFELIFLPALDEKTLPLKPEVAVAKGAAKEINLLIGTNRDEGVLFFPSDSDLLPESKINEILEEYMGKEAAEAASSLYPRSLEGHVDMMTDLIFWHPSVVFASAQSRYASVFMYRFDWHADSEQPPFNKAAHGLEIPFVFGNMDILEQLTGTKAGEEAQLLAEQIQAAWVSFARSGNPSTDDVSWPDYDEDSRKTLIFDQEVAVESDPYSDKRKMLTAPNPQI
As to B3, the “Specific Activity” value in [1] is on record as 1.3 U/mg; in data set [2], <1 U/mg; in data set [4] it was 13.0 U/mg; in [7] it was 22.4 U/mg; in data set [9], 4.4 U/mg; in [11] it was <1 U/mg. Further, the “Specific Activity” value is 50.5 U/mg in [12], 2.87 µmol/min/mg in data set [14] and <1 U/mg in [15]. Also, the catalytic constant (kcat) amounted to 10468 s⁻¹ in data set [3]; 90267 s⁻¹ in data set [5]; 29735 s⁻¹ in data set [6]; 14784 s⁻¹ in data set [8]; 12574 s⁻¹ in data set [10]; 9356 s⁻¹ in data set [13]. For the same molecule, the kcat in data set [14] turned out to be 9358 s⁻¹. The vMax in [3] worked out at 3.21 U/mg; in data set [5], 27.67 U/mg; in data set [6], 9.11 U/mg; in [8], 4.53 U/mg; in data set [10], 3.57 U/mg; in [13], 2.87 U/mg. The molecule also returned a vMax in [14] of 1.801 µmol/min.
